Patent US20240043568A1 (KEYMED BIOSCIENCES, published 2024)

Experiments:
human CD3 on T cells [1] = target: T1, human CD3 on T cells (human, UniProt P07766 23-207); test: flow cytometry, Jurkat cells
T1 construct: whole, on cells; The target is the native CD3 complex on cells; The recombinant antigen used elsewhere is the εγ heterodimer; also called CD3 on Jurkat cells; CD3 on human peripheral blood CD4+ and CD8+ T cells
Experimental: Jurkat cells in the logarithmic growth phase were taken, added with 200 μg/mL of murine IgG (Jackson ImmunoResearch, 115-005-03), and incubated on ice for 30 minutes. The cells were adjusted to 5×10⁵ cells/mL with 4% calf serum and added to a 96-well U-shaped plate at 100 μl/well. The centrifugation was performed at 300 g. The supernatant was discarded. 100 μL of gradient diluted antibody (initial concentration: 1800 nM, 3-fold dilution, 10 gradients) was added to each well, and incubated at 4° C. for 60 min. The secondary antibody Alexa Fluro647 labeled goat anti-human IgG Fc (1:300 dilution) was added at 50 μL/well and incubated on ice for 20 min. After washing once, PI solution was added at 50 μL/well. Incubation was performed for 5 min before detection by flow cytometry (BD C6).

human GPC3 on cells = target: T2, human GPC3 on cells (human, UniProt P51654 25-563); test: flow cytometry, CHO-human GPC3 cells
T2 construct: whole, on cells; One molecule is used for both CHO-hGPC3 transfectants and GPC3+ HepG2 cells; The assay field names the cell; also called CHO-hGPC3 (clone 2B10); CHO-human GPC3
Experimental: CHO-human GPC3 and CHO-cynomolgus monkey GPC3 stably-transfected cells in the logarithmic growth phase were taken, adjusted to 5×10⁵ cells/ml using 4% calf serum (Hyclone, SH30626.06), and added to a 96-well U-shaped plate at 100 μl/well cell suspension. The centrifugation was performed at 300 g for 5 min. The supernatant was discarded. 100 μL of gradient diluted antibody (initial concentration: 1800 nM, 3-fold dilution, 10 gradients) was added to each well, and incubated at 4° C. for 60 min. The secondary antibody Alexa Fluro647 labeled goat anti-human IgG Fc (1:300 dilution) was added at 50 μL/well and incubated on ice for 20 min. After washing once, propidium iodide solution (1:300) was added at 50 μL/well. Incubation was performed for 5 min before detection by flow cytometry.

human CD3 on T cells [2] = target: T1, human CD3 on T cells; test: flow cytometry, human peripheral blood CD4+ T cells
Experimental: (§1) Fresh human peripheral blood was taken and PBMCs were isolated by Ficoll-Paque Plus (GE, 17-1440-03). The PBMCs were adjusted to 5×10⁵ cells/mL with 4% calf serum (Hyclone, SH30626.06), and added to a 96-well U-plate at 100 μL/well. The centrifuged supernatant was discarded. 100 μL of gradient diluted antibody (initial concentration: 1800 nM, 3-fold dilution, 11 gradients) was added to each well and incubated at 4° C. for 60 minutes. The secondary antibody Alexa Fluro647 labeled goat anti-human IgG Fc (1:300 dilution) was added at 50 μL/well and incubated on an ice bath for 20 min. After washing once, PI solution was added at 50 μL/well. Incubation was performed for 5 min before detection by flow cytometry (BD Celesta). The GPC3×CD3κλ bispecific antibody can bind to the human peripheral blood T cell with low affinity.

human CD3 on T cells [3] = target: T1, human CD3 on T cells; test: flow cytometry, human peripheral blood CD8+ T cells
Experimental: as §1

[4] = target: T3, recombinant human GPC3 protein (human, UniProt P51654 25-563); test: SPR (Biacore T200), antibody on Protein A chip, GPC3 as analyte
T3 construct: also called human GPC3 full-length protein; recombinant GPC3 protein
Experimental: (§2) The antibodies with a concentration of 1 μg/ml were captured on the Protein A chip (GE healthcare). Different concentrations of recombinant human or cynomolgus monkey GPC3 protein (5 μg/ml as the initial concentration, 2-fold gradient, a total of 6 concentration points) as the analyte was flowed through the chip at a flow rate of 30 μL/min, with an association time of 120 seconds, and a dissociation time of 400 seconds. The changes in the SPR signal during the association and dissociation of the protein were recorded. The kinetic constants were obtained by fitting with 1:1 binding model using Biacore T200 evaluation software.

[5] = target: recombinant cynomolgus monkey GPC3 full-length protein (cynomolgus monkey, UniProt A0A2K5VK50 24-558); test: as above
Experimental: as §2

FcγRI with His tag [6] = target: T4, FcγRI with His tag (UniProt P12314 16-288); test: SPR, His-tagged FcγRI captured by anti-His antibody on the chip, antibody as analyte [row FcγRI, column GPC3×CD3 κλ002]
T4 construct: Bought protein; also called FcγRI (Sino Biological #10256-H08H)
Experimental: (§3) 50 μg/mL His-Tag antibodies were conjugated to a CMS chip through amino groups, and recombinant proteins FcγRI, FcγRIIAH131, and FcγRIIIAV158 with His tags (Sino Biological, #10256-H08H/10374-H08H1/10389-H08H1) were respectively captured for a capture time of 40 s at a flow rate of 10 μL/min. After the baseline was stable, the gradient-diluted antibody (the initial concentration of 37.5 μg/mL, 2-fold dilution) flowed through the chip at a flow rate of 30 μL/min, with a binding time of 120 s and a dissociation time of 200 s. The affinity constants were obtained by fitting them with Biacore evaluation software. It can be seen from FIG. 22 that the GPC3×CD3κλ bispecific antibody has no binding to FcγRI, FcγRIIAH131, and FcγRIIIAV158; The wild-type IgG4 control antibody can bind to FcγRI with high affinity and weakly bind to Fcγ RIIAH131.

[7] = target: T5, FcγRIIIAV158 with His tag (UniProt P08637 17-208); test: SPR, His-tagged FcγRIIIAV158 captured by anti-His antibody on the chip, antibody as analyte [row FcγRIIIAV158, column GPC3×CD3 κλ002]
T5 construct: Bought protein; also called FcγRIIIAV158 (Sino Biological #10389-H08H1)
Experimental: as §3

FcγRI with His tag [8] = target: T4, FcγRI with His tag; test: SPR, His-tagged FcγRI captured by anti-His antibody on the chip, antibody as analyte [row FcγRI, column GPC3×CD3 κλ003]
Experimental: as §3

[9] = target: T5, FcγRIIIAV158 with His tag; test: SPR, His-tagged FcγRIIIAV158 captured by anti-His antibody on the chip, antibody as analyte [row FcγRIIIAV158, column GPC3×CD3 κλ003]
Experimental: as §3

T5 sequence (P08637 17-208 F176V limits assumed): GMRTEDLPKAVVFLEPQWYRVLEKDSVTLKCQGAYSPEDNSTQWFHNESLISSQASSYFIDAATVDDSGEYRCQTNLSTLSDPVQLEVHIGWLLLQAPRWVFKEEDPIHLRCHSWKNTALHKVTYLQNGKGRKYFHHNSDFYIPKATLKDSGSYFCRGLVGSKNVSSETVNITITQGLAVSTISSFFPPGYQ
T4 sequence (P12314 16-288 limits assumed): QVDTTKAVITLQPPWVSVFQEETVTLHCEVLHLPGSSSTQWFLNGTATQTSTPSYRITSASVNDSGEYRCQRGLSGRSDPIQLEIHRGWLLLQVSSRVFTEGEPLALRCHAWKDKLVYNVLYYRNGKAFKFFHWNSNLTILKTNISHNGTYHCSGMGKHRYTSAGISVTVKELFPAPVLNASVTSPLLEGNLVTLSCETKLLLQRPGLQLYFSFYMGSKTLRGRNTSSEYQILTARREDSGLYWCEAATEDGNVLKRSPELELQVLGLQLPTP

B1: GPC3×CD3 κλ002 (bispecific antibody, human IgG4 S228P, kappa, lambda)
light 1: DVVMTQSPLSLPVTPGEPASISCRSSQSIVHSNGNTYLEWYLKKPGQSPQLLIYKVSNRFSGVPDRFSGSGSGTDFTLKISRVEAEDVGVYFCLQVTHVPLTFGQGTKLEIKRTVAAPSVFIFPPSDEQLKSGTASVVCLLNNFYPREAKVQWKVDNALQSGNSQESVTEQDSKDSTYSLSSTLTLSKADYEKHKVYACEVTHQGLSSPVTKSFNRGEC
heavy 1: QVQLVQSGAEVKKPGSSVKVSCKASGYTFADYEIHWVREAPGQGLEWMGAIHPGSGGTAYAQKFQGRVTLTADESSTTAYMELSSLRSEDTAVYYCTRYYSFAYWGQGTLVTVSSASTKGPSVFPLAPCSRSTSESTAALGCLVKDYFPEPVTVSWNSGALTSGVHTFPAVLQSSGLYSLSSVVTVPSSSLGTKTYTCNVDHKPSNTKVDKRVESKYGPPCPPCPAPEFEGGPSVFLFPPKPKDTLMISRTPEVTCVVVDVSQEDPEVQFNWYVDGVEVHNAKTKPREEQFNSTYRVVSVLTVLHQDWLNGKEYKCKVSNKGLASSIEKTISKAKGQPREPQVCTLPPSQEEMTKNQVSLSCAVKGFYPSDIAVEWESNGQPENNYKTTPPVLDSDGSFFLVSKLTVDKSRWQEGNVFSCSVMHEALHNHYTQKSLSLSLGK
light 2: QAVVTQEPSLTVSPGGTVTLTCRSSTGAVTTSNYANWVQEKPGQAPRGLIGGTNKRAPWTPARFSGSLLGGKAALTITGAQAEDEAEYYCVLWYSNLWVFGGGTKLTVLGQPKAAPSVTLFPPSSEELQANKATLVCLISDFYPGAVTVAWKADSSPVKAGVETTTPSKQSNNKYAASSYLSLTPEQWKSHRSYSCQVTHEGSTVEKTVAPTECS
heavy 2: EVQLVESGGGLVQPGGSLRLSCAASGFTFNTYAMNWVRKAPGKGLEWVGRIRSKYNNYATYYADSVKDRFTISRDDSKNSLYLQMNSLKTEDTAVYYCVRHGNFGNSYVSWFAYWGQGTLVTVSSASTKGPSVFPLAPCSRSTSESTAALGCLVKDYFPEPVTVSWNSGALTSGVHTFPAVLQSSGLYSLSSVVTVPSSSLGTKTYTCNVDHKPSNTKVDKRVESKYGPPCPPCPAPEFEGGPSVFLFPPKPKDTLMISRTPEVTCVVVDVSQEDPEVQFNWYVDGVEVHNAKTKPREEQFNSTYRVVSVLTVLHQDWLNGKEYKCKVSNKGLASSIEKTISKAKGQPREPQVYTLPPCQEEMTKNQVSLWCLVKGFYPSDIAVEWESNGQPENNYKTTPPVLDSDGSFFLYSKLTVDKSRWQEGNVFSCSVMHEALHNHYTQKSLSLSLGK
notes: also called GPC3 x CD3 κλ002; GPC3×CD3κλ bispecific antibody
Q: What does the source list for B1?
A: EC50 (human CD3 on T cells [1]): 0.036 µM; EC50 (human GPC3 on cells): 0.0028 µM; EC50 (human CD3 on T cells [2]): 0.065 µM; EC50 (human CD3 on T cells [3]): 0.065 µM; Kd [4]: 0.00135 µM; Kd [5]: 0.0016 µM; binding result (FcγRI with His tag [6]): no binding; binding result [7]: no binding

B2: GPC3×CD3 κλ003 (bispecific antibody, human IgG4 S228P, kappa, lambda)
light 1: DVVMTQSPLSLPVTPGEPASISCRSSQSIVHSNGNTYLEWYLKKPGQSPQLLIYKVSNRFSGVPDRFSGSGSGTDFTLKISRVEAEDVGVYFCLQVTHVPLTFGQGTKLEIKRTVAAPSVFIFPPSDKKLKSGTASVVCLLNNFYPREAKVQWKVDNALQSGNSQESVTEQDSKDSTYSLSSTLTLSKADYEKHKVYACEVTHQGLSSPVTKSFNRGEC
heavy 1: QVQLVQSGAEVKKPGSSVKVSCKASGYTFADYEIHWVREAPGQGLEWMGAIHPGSGGTAYAQKFQGRVTLTADESSTTAYMELSSLRSEDTAVYYCTRYYSFAYWGQGTLVTVSSASTKGPSVFPLAPCSRSTSESTAALGCLVEDYFPEPVTVSWNSGALTSGVHTFPAVLQSSGLYSLSSVVTVPSSSLGTKTYTCNVDHKPSNTKVDERVESKYGPPCPPCPAPEFEGGPSVFLFPPKPKDTLMISRTPEVTCVVVDVSQEDPEVQFNWYVDGVEVHNAKTKPREEQFNSTYRVVSVLTVLHQDWLNGKEYKCKVSNKGLASSIEKTISKAKGQPREPQVCTLPPSQEEMTKNQVSLSCAVKGFYPSDIAVEWESNGQPENNYKTTPPVLDSDGSFFLVSKLTVDKSRWQEGNVFSCSVMHEALHNHYTQKSLSLSLGK
light 2: QAVVTQEPSLTVSPGGTVTLTCRSSTGAVTTSNYANWVQEKPGQAPRGLIGGTNKRAPWTPARFSGSLLGGKAALTITGAQAEDEAEYYCVLWYSNLWVFGGGTKLTVLGQPKAAPSVTLFPPSSEELQANKATLVCLISDFYPGAVTVAWKADSSPVKAGVETTTPSKQSNNKYAASSYLSLTPEQWKSHRSYSCQVTHEGSTVEKTVAPTECS
heavy 2: EVQLVESGGGLVQPGGSLRLSCAASGFTFNTYAMNWVRKAPGKGLEWVGRIRSKYNNYATYYADSVKDRFTISRDDSKNSLYLQMNSLKTEDTAVYYCVRHGNFGNSYVSWFAYWGQGTLVTVSSASTKGPSVFPLAPCSRSTSESTAALGCLVKDYFPEPVTVSWNSGALTSGVHTFPAVLQSSGLYSLSSVVTVPSSSLGTKTYTCNVDHKPSNTKVDKRVESKYGPPCPPCPAPEFEGGPSVFLFPPKPKDTLMISRTPEVTCVVVDVSQEDPEVQFNWYVDGVEVHNAKTKPREEQFNSTYRVVSVLTVLHQDWLNGKEYKCKVSNKGLASSIEKTISKAKGQPREPQVYTLPPCQEEMTKNQVSLWCLVKGFYPSDIAVEWESNGQPENNYKTTPPVLDSDGSFFLYSKLTVDKSRWQEGNVFSCSVMHEALHNHYTQKSLSLSLGK
notes: also called GPC3 x CD3 κλ003; GPC3×CD3κλ bispecific antibody
Q: B2 was tested. Which EC50 (human CD3 on T cells [1]) did it give?
A: 0.026 µM

Q: And the EC50 (human GPC3 on cells)?
A: 0.0029 µM

Q: What about the EC50 (human CD3 on T cells [2]) of the same binder?
A: 0.056 µM

Q: And the EC50 (human CD3 on T cells [3])?
A: 0.069 µM

Q: And the Kd [4]?
A: 0.00211 µM

Q: What about the Kd [5] of the same binder?
A: 0.00191 µM

Q: Does B2 bind (FcγRI with His tag [8])?
A: no binding

Q: Does B2 bind [9]?
A: no binding
